Measurements reported in paper PMC4627417.
Blank lines part the entries; values can stand above or below the substance they belong to.

How the values were obtained:
Experiment in all cases: biotin-peptide pull-down, MUDPIT mass spectrometry
SCAF8 = SCAF8 (UniProt Q9UPN6)
SCAF4 = SCAF4 (UniProt O95104)
RPRD1B = RPRD1B (UniProt Q9NQG5)
RPRD2 = RPRD2 (UniProt Q5VT52)
[1] = reference: unphosphorylated CTD peptide, sites S2
[2] = reference: unphosphorylated CTD peptide, sites S5
[3] = reference: unphosphorylated CTD peptide, sites Y1
[4] = reference: pS2-CTD peptide, sites Y1

other: number of peptides identified (SCAF8; [1]): gained; reference 0 | other: number of peptides identified (SCAF4; [1]): gained; reference 0 | other: number of peptides identified (RPRD1B; [1]): gained; reference 0 | other: number of peptides identified (RPRD2; [1]): gained; reference 0
Substance: RNA polymerase II largest subunit (Rpb1) C-terminal repeated domain (CTD) (from UniProt P24928) pS2-CTD peptide

other: number of peptides identified (SCAF8; [2]): none in both; reference 0 | other: number of peptides identified (SCAF4; [2]): none in both; reference 0 | other: number of peptides identified (RPRD1B; [2]): none in both; reference 0 | other: number of peptides identified (RPRD2; [2]): none in both; reference 0
Substance: RNA polymerase II largest subunit (Rpb1) C-terminal repeated domain (CTD) (from UniProt P24928) pS5-CTD peptide

other: number of peptides identified (SCAF8; [3]): none in both; reference 0 | other: number of peptides identified (SCAF4; [3]): none in both; reference 0 | other: number of peptides identified (RPRD1B; [3]): none in both; reference 0 | other: number of peptides identified (RPRD2; [3]): none in both; reference 0
Substance: RNA polymerase II largest subunit (Rpb1) C-terminal repeated domain (CTD) (from UniProt P24928) pY1-CTD peptide

other: number of peptides identified (SCAF8; [4]): lost; reference 17 | other: number of peptides identified (SCAF4; [4]): weaker; reference 12 | other: number of peptides identified (RPRD1B; [4]): weaker; reference 40 | other: number of peptides identified (RPRD2; [4]): weaker; reference 63
Substance: RNA polymerase II largest subunit (Rpb1) C-terminal repeated domain (CTD) (from UniProt P24928) pY1pS2-CTD peptide
